# ± gives the standard deviation of the averaged measurements.
# Key:
# Saccharomyces cerevisiae [1] = assay: protein stability index of tFT-peptide fusion (C-terminal peptide) (PSI (0-1 scale)); higher = more stable (slower turnover)
# Experimental: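 MPS profiling in S. cerevisiae of the tFT-X12 degron library: putative degron peptides plus stable controls, 12 aa, fused to the C-terminus of a sfGFP-mCherry timer. Cells are FACS-sorted into 8 mCherry/sfGFP bins and deep-sequenced. PSI runs from 0 (unstable) to 1 (stable). Backgrounds are wild type, das1Δ and doa10Δ at 30 °C, and wild type, das1Δ, cdc34-1 and cdc53-1 at 37 °C; 2-3 technical replicates each.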
# Saccharomyces cerevisiae [2] = assay: as above; details: genetic background: wild type; temperature: 30 C
# [3] = genetic background: cdc34-1, temperature: 37 C
# [4] = genetic background: cdc53-1, temperature: 37 C
# [5] = genetic background: das1 deletion, temperature: 30 C
# [6] = genetic background: das1 deletion, temperature: 37 C
# [7] = genetic background: doa10 deletion, temperature: 30 C
# [8] = genetic background: wild type, temperature: 30 C
# [9] = genetic background: wild type, temperature: 37 C
# 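Note: PSI is a weighted mean of sequencing reads over stability bins, variants kept only with over 10 reads, mCherry proximal and sfGFP distal, peptide attached via GGGS linker.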
Sequence,protein stability index (Saccharomyces cerevisiae [1]; [3]),protein stability index (Saccharomyces cerevisiae [1]; [4]),protein stability index (Saccharomyces cerevisiae [1]; [5]),protein stability index (Saccharomyces cerevisiae [1]; [6]),protein stability index (Saccharomyces cerevisiae [1]; [7]),protein stability index (Saccharomyces cerevisiae [1]; [8]),protein stability index (Saccharomyces cerevisiae [1]; [9]),protein stability index (Saccharomyces cerevisiae [2])
LDLSSLRCRYLL,0.639 ± 0.058,0.725 ± 0.034,0.657 ± 0.021,0.765 ± 0.021,0.185 ± 0.011,0.214 ± 0.014,0.427 ± 0.0081,0.343 ± 0.099
LDTTSRSRAKIS,0.509 ± 0.031,0.6775 ± 0.0026,0.625 ± 0.022,0.718 ± 0.013,0.0782 ± 0.032,0.0968 ± 0.048,0.138 ± 0.021,0.164 ± 0.032
LFFGLCFVFFGF,0.384 ± 0.022,0.459 ± 0.0067,0.362 ± 0.032,0.48 ± 0.0058,0.407 ± 0.015,0.366 ± 0.013,0.4582 ± 0.0013,0.378 ± 0.046
LFFLSASFFFFF,0.458 ± 0.011,0.554 ± 0.0066,0.449 ± 0.034,0.547 ± 0.0075,0.222 ± 0.0092,0.207 ± 0.033,0.356 ± 0.067,0.289 ± 0.0064
LFFSPRRLSPPT,0.705 ± 0.024,0.7533 ± 0.0049,0.695 ± 0.03,0.778 ± 0.022,0.688 ± 0.019,0.695 ± 0.015,0.746 ± 0.022,0.748 ± 0.011
LFIVTFIPVLFS,0.49 ± 0.064,0.545 ± 0.034,0.374 ± 0.016,0.623 ± 0.0088,0.41 ± 0.0081,0.384 ± 0.041,0.59 ± 0.08,0.494 ± 0.0074
LFMLHFLAVLRY,0.124 ± 0.054,0.1407 ± 0.00041,0.272 ± 0.037,0.3358 ± 0.003,0.337 ± 0.017,0.242 ± 0.027,0.311 ± 0.011,0.308 ± 0.099
LFSFVCLVFFLW,0.312 ± 0.017,0.375 ± 0.006,0.291 ± 0.03,0.441 ± 0.0094,0.306 ± 0.032,0.27 ± 0.026,0.4178 ± 0.00065,0.38 ± 0.07
LFSPLKGILSVM,0.589 ± 0.0073,0.664 ± 0.011,0.51 ± 0.032,0.691 ± 0.0074,0.2641 ± 0.00021,0.316 ± 0.027,0.5081 ± 0.0023,0.448 ± 0.018
LFTTYVFLVFFQ,0.345 ± 0.011,0.474 ± 0.0096,0.337 ± 0.027,0.511 ± 0.0082,0.2692 ± 0.0019,0.29 ± 0.018,0.4367 ± 0.0009,0.372 ± 0.012
LFVFTYPFLSWL,0.617 ± 0.011,0.66 ± 0.011,0.591 ± 0.042,0.6963 ± 0.0031,0.552 ± 0.028,0.514 ± 0.016,0.615 ± 0.0094,0.478 ± 0.0061
LFVMVSVSGLVV,0.0501 ± 0.016,0.0999 ± 0.071,0.159 ± 0.031,0.255 ± 0.0059,0.145 ± 0.0021,0.16 ± 0.026,0.235 ± 0.0073,0.261 ± 0.017
LFVVHCFLSVSS,0.0267 ± 0.0027,0.0524 ± 0.033,0.0648 ± 0.021,0.165 ± 0.0062,0.0415 ± 0.0025,0.0374 ± 0.017,0.133 ± 0.029,0.109 ± 0.039
LFWFRGTIVTPR,0.693 ± 0.027,0.726 ± 0.017,0.638 ± 0.015,0.7371 ± 0.0069,0.635 ± 0.019,0.6335 ± 0.0044,0.705 ± 0.018,0.693 ± 0.034
LGCFGSSFVFCC,0.565 ± 0.015,0.668 ± 0.02,0.553 ± 0.029,0.685 ± 0.015,0.138 ± 0.0034,0.155 ± 0.017,0.355 ± 0.0038,0.23 ± 0.016
LGRVSAKFFCVL,0.654 ± 0.066,0.74 ± 0.013,0.646 ± 0.014,0.7237 ± 0.0027,0.13 ± 0.015,0.134 ± 0.022,0.246 ± 0.018,0.239 ± 0.022
LGVCLFFVRCWS,0.1796 ± 0.0014,0.205 ± 0.0098,0.189 ± 0.033,0.324 ± 0.019,0.159 ± 0.025,0.184 ± 0.033,0.271 ± 0.034,0.174 ± 0.047
LIFRLCVCGVFW,0.516 ± 0.03,0.549 ± 0.015,0.468 ± 0.044,0.5218 ± 0.0011,0.278 ± 0.017,0.271 ± 0.032,0.376 ± 0.009,0.4101 ± 0.00073
LILRVLFLFEPC,0.4385 ± 0.0028,0.4842 ± 0.0035,0.389 ± 0.026,0.511 ± 0.0049,0.395 ± 0.022,0.368 ± 0.031,0.481 ± 0.0066,0.42 ± 0.025
LIRLCVAPMVCR,0.455 ± 0.02,0.48 ± 0.0056,0.349 ± 0.023,0.5145 ± 0.0016,0.32 ± 0.005,0.349 ± 0.02,0.485 ± 0.011,0.438 ± 0.015

Sequence,protein stability index (Saccharomyces cerevisiae [1]; [3]),protein stability index (Saccharomyces cerevisiae [1]; [4]),protein stability index (Saccharomyces cerevisiae [1]; [5]),protein stability index (Saccharomyces cerevisiae [1]; [6]),protein stability index (Saccharomyces cerevisiae [1]; [7]),protein stability index (Saccharomyces cerevisiae [1]; [8]),protein stability index (Saccharomyces cerevisiae [1]; [9]),protein stability index (Saccharomyces cerevisiae [2])
LKKTLNGRRKMI,0.626 ± 0.019,0.73 ± 0.042,0.638 ± 0.048,0.736 ± 0.015,0.239 ± 0.063,0.282 ± 0.036,0.373 ± 0.02,0.416 ± 0.037
LLASFWKFIVNI,0.613 ± 0.036,0.722 ± 0.015,0.641 ± 0.058,0.7 ± 0.073,0.139 ± 0.012,0.166 ± 0.012,0.166 ± 0.011,0.23 ± 0.016
LLAWLHTVQRVG,0.695 ± 0.028,0.7529 ± 0.0028,0.659 ± 0.02,0.7844 ± 0.0033,0.226 ± 0.0046,0.271 ± 0.023,0.493 ± 0.013,0.339 ± 0.011
LLFLVCFFPSIS,0.46 ± 0.061,0.534 ± 0.016,0.311 ± 0.045,0.549 ± 0.033,0.304 ± 0.0092,0.313 ± 0.043,0.52 ± 0.036,0.454 ± 0.05
LLFYSYFFFVLY,0.172 ± 0.034,0.148 ± 0.0098,0.248 ± 0.021,0.341 ± 0.015,0.312 ± 0.023,0.213 ± 0.0032,0.286 ± 0.023,0.265 ± 0.0037
LLGGRVLWAWRV,0.653 ± 0.045,0.689 ± 0.052,0.626 ± 0.016,0.737 ± 0.019,0.155 ± 0.026,0.199 ± 0.022,0.3907 ± 0.0025,0.376 ± 0.022
LLLLFPSPLFIR,0.126 ± 0.057,0.0999 ± 0.026,0.235 ± 0.012,0.303 ± 0.022,0.553 ± 0.024,0.216 ± 0.019,0.272 ± 0.02,0.281 ± 0.05
LLLRQVFSLGVF,0.549 ± 0.048,0.64 ± 0.023,0.558 ± 0.011,0.6741 ± 0.0063,0.104 ± 0.018,0.142 ± 0.014,0.312 ± 0.021,0.162 ± 0.0081
LLLVSLAVPLSL,0.524 ± 0.013,0.569 ± 0.014,0.465 ± 0.017,0.559 ± 0.021,0.451 ± 0.03,0.459 ± 0.02,0.539 ± 0.0084,0.509 ± 0.022
LLSLPTTNLMAF,0.575 ± 0.029,0.61058 ± 0.00044,0.49 ± 0.026,0.615 ± 0.0099,0.356 ± 0.02,0.403 ± 0.018,0.56467 ± 0.00055,0.484 ± 0.014
LLTLILRIFVLN,0.304 ± 0.031,0.451 ± 0.0055,0.316 ± 0.028,0.476 ± 0.028,0.144 ± 0.01,0.147 ± 0.028,0.217 ± 0.037,0.225 ± 0.024
LLVFFLAIPSLV,0.286 ± 0.011,0.343 ± 0.02,0.23 ± 0.037,0.413 ± 0.0073,0.195 ± 0.014,0.219 ± 0.033,0.3853 ± 0.002,0.337 ± 0.031
LLVFSLLYPCLV,0.324 ± 0.0049,0.362 ± 0.017,0.289 ± 0.031,0.419 ± 0.013,0.241 ± 0.0036,0.272 ± 0.02,0.3913 ± 0.0032,0.345 ± 0.021
LLVIAIKVPANS,0.489 ± 0.013,0.485 ± 0.0072,0.352 ± 0.025,0.507 ± 0.018,0.337 ± 0.036,0.358 ± 0.012,0.485 ± 0.00075,0.429 ± 0.024
LLVYLYFFFSCS,0.309 ± 0.041,0.442 ± 0.045,0.292 ± 0.021,0.484 ± 0.005,0.2414 ± 0.0016,0.263 ± 0.011,0.42 ± 0.027,0.374 ± 0.022
LLYHFCLFFFRE,0.521 ± 0.044,0.592 ± 0.037,0.462 ± 0.024,0.619 ± 0.014,0.441 ± 0.015,0.449 ± 0.011,0.558 ± 0.053,0.513 ± 0.044
LMVLISVMFSLG,0.112 ± 0.0088,0.254 ± 0.029,0.149 ± 0.022,0.292 ± 0.012,0.113 ± 0.013,0.182 ± 0.032,0.231 ± 0.012,0.323 ± 0.022
LMWVFPRVVWLY,0.123 ± 0.037,0.102 ± 0.016,0.244 ± 0.042,0.321 ± 0.022,0.0838 ± 0.0041,0.0646 ± 0.0052,0.0611 ± 0.00062,0.0903 ± 0.014
LPLHTLLLCPPV,0.447 ± 0.037,0.459 ± 0.013,0.37 ± 0.03,0.4988 ± 0.003,0.345 ± 0.0046,0.382 ± 0.024,0.4782 ± 0.0033,0.493 ± 0.031
